Experimental data published in US20150011431A1 (Scripps Research, published 2015).

Tests used:
CXCR1 [1] = target: T1, CXCR1 (UniProt P25024 1-350, limits assumed); assay: flow cytometry; fluorescence on CXCR1-U2OS cells over fluorescence on parental U2OS cells
T1 construct: whole, on cells; DiscoveRx cells engineered with a luminescent reporter enzyme for beta-arrestin recruitment; also called CXCR1-U2OS; U2OS-CXCR1
T1 sequence (looked up): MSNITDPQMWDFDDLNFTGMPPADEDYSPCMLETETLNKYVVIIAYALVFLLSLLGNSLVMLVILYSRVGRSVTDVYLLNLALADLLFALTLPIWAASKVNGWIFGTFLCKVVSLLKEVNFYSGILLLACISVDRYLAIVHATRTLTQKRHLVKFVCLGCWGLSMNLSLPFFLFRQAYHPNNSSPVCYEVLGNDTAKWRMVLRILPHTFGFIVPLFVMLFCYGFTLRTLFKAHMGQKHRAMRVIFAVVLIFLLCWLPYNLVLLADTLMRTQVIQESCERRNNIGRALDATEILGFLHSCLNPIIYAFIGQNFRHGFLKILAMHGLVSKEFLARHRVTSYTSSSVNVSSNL
Experimental: (§1) In an exemplary method, BLV1H12 IgG comprising a CDR3 with an IL-8 insert (e.g., the IL-8 sequence replaced a portion of the CDR3) was evaluated for binding to CXCR1 expressing cells by flow cytometry. Briefly, a cell line expressing functionally validated CXCR1 derived from U2OS cells was obtained from DiscoveRx and cultured per manufacturer's instructions (Cat#93-0226C3, DiscoveRx Corporation, Freemont, Calif.). The parental cell line U2OS was obtained from ATCC and cultured under the same conditions as the CXCR1 cells. Cell culture supernatants were then tested for binding to cells by flow cytometry. The adherent U2OS or CXCR1-U2OS cells were dissociated with Accutase (Innovative Cell Technologies, Inc., San Diego, Calif.), neutralized with an equal volume of media containing 10% serum, centrifuged at 1000 g, and resuspended in PBS with 2% BSA. Next, cells were dispensed into microtiter plates to achieve between 30,000 to 300,000 cells per well, centrifuged again, and resuspended in cell culture supernatant containing expressed IgG, or a dilution of IgG-containing cell culture supernatant. A fluorescent-conjugated anti-Human Fc antibody was used to detect binding of the expressed antibody to cells.
(§2) Additionally, the human germline CDR3-IL8 IgGs described in Example 5 were evaluated for binding to CXCR1 expressing cells by flow cytometry as described above. IgG binding to CXCR1-U2OS cells is indicated by higher fluorescence values, but non-specific binding to U2OS parental cells is also detectable.

CXCR1 [2] = target: T1, CXCR1; assay: flow cytometry, IgG-containing supernatant on CXCR1-U2OS cells, fluorescent anti-human Fc
Experimental: as §1, §2

CXCR1 [3] = target: T1, CXCR1; assay: flow cytometry; fluorescence on CXCR1-U2OS cells over fluorescence on parental U2OS cells; remark: listed apart in the source
Experimental: as §1
In an exemplary method, certain residues in VH4-34 CDR1 and/or CDR2 were substituted with corresponding CDR1 and/or CDR2 residues from BLV1H12. Briefly, the pFuse vector encoding heavy chain VH4-34 CDR3-IL8 was modified by overlap PCR to replace all of CDR1 with sequence from BLV1H12 (VH4-34+CDR3-IL8_CDR1 Cow, SEQ ID NO: 432) or all of CDR2 with sequence from BLV1 H12 (VH4-34+CDR3-IL8_CDR2 Cow, SEQ ID NO: 433).

CXCR1 [4] = target: T1, CXCR1; assay: as above; remark: listed apart in the source
Experimental: as §1
Alternatively, using the BLV1H12 light chain variable region as a guide, the human germline sequences identified with closest homology were V1-47 and V1-51.

CXCR1 [5] = target: T1, CXCR1; assay: flow cytometry with 2 ug/ml heparin sulfate, IgG normalized to 10 nM; CXCR1-U2OS against parental U2OS cells
Experimental: Cell culture supernatants were then tested for binding to cells by flow cytometry. The adherent U2OS or CXCR1-U2OS cells were dissociated with Accutase (Innovative Cell Technologies, Inc., San Diego, Calif.), neutralized with an equal volume of media containing 10% serum, centrifuged at 1000 g, and resuspended in PBS with 2% BSA. Next, cells were dispensed into microtiter plates to achieve between 30,000 to 300,000 cells per well, centrifuged again, and resuspended in cell culture supernatant containing expressed IgG, or a dilution of IgG-containing cell culture supernatant. A fluorescent-conjugated anti-Human Fc antibody was used to detect binding of the expressed antibody to cells.
In an exemplary method, variants of V1-51 were made by overlap PCR and subcloned into pFuse vector for expression as described in Example 4. […] These V1-51 variants were paired with heavy chains encoding VH4-34+CDR3-IL8 (SEQ ID NO: 430), VH4-34+CDR3-IL8_CDR1 Cow (SEQ ID NO: 432), VH4-34+CDR3-IL8_CDR2 Cow (SEQ ID NO: 433), or VH4-34+CDR3-IL8_CDR1 Cow CDR2 Cow, (SEQ ID NO: 436). Transfections and ELISA were carried out as described above, and flow cytometry was used to evaluate CXCR1 binding specificity as previously described, with the modification that cells were resuspended in 2% BSA in PBS plus 2 ug/ml Heparin sulfate, and IgGs were normalized to 10 nM during incubation on cells.

B1: IgG with VH4-34+CDR3-IL8 (antibody)
VH: QVQLQQWGAGLLKPSETLSLTCAVYGGSFSGYYWSWIRQPPGKGLEWIGEINHSGSTNYNPSLKSRVTISVDTSKNQFSLKLSSVTAADTAVYYCTSVHQETKKYQSPRSAKELRCQCIKTYSKPFHPKFIKELRVIESGPHCANTEIIVKLSDGRELCLDPKENWVQRVVEKFLKRAENSGSGSYTYNYEWHVDVWGQGLLVTVSSAS
light: not shown
notes: IgG; VH cloned before human IgG1 CH1-CH2-CH3 in HC pFuse; cell culture supernatant; also called VH4-34 BLVCDR3IL8
In the case of B1, the “Ratio of CXCR1/Parental” value (CXCR1 [1]) is reported as 9.3, the “median fluorescence on CXCR1-U2OS” value (CXCR1 [2]) is reported as 648 AFU and the “FACS CXCR1/Parental Ratio” value (CXCR1 [3]) is reported as 9.3.

B2: IgG with VH4-34+CDR3-IL8_CDR2 E50S and BLV1H12 light chain (antibody)
VH: QVQLQQWGAGLLKPSETLSLTCAVYGGSFSGYYWSWIRQPPGKGLEWIGSINHSGSTNYNPSLKSRVTISVDTSKNQFSLKLSSVTAADTAVYYCTSVHQETKKYQSPRSAKELRCQCIKTYSKPFHPKFIKELRVIESGPHCANTEIIVKLSDGRELCLDPKENWVQRVVEKFLKRAENSGSGSYTYNYEWHVDVWGQGLLVTVSSAS
VL: QAVLNQPSSVSGSLGQRVSITCSGSSSNVGNGYVSWYQLIPGSAPRTLIYGDTSRASGVPDRFSGSRSGNTATLTISSLQAEDEADYFCASAEDSSSNAVFGSGTTLTVLGQPKSPPSVTLFPPSTEELNGNKATLVCLISDFYPGSVTVVWKADGSTITRNVETTRASKQSNSKYAASSYLSLTSSDWKSKGSYSCEVTHEGSTVTKTVKPSECS
notes: IgG, human IgG1 CH1-CH2-CH3; also called VH4-34 + CDR3-IL8 + E50S
B2 was tested, and the “FACS CXCR1/Parental Ratio” value (CXCR1 [3]) was 4.

B3: IgG with VH4-34+CDR3-IL8_CDR2 Cow and BLV1H12 light chain (antibody)
VH: QVQLQQWGAGLLKPSETLSLTCAVYGGSFSGYYWSWIRQPPGKGLEWLGSIDTGGNTGYNPSLKSRVTISVDTSKNQFSLKLSSVTAADTAVYYCTSVHQETKKYQSPRSAKELRCQCIKTYSKPFHPKFIKELRVIESGPHCANTEIIVKLSDGRELCLDPKENWVQRVVEKFLKRAENSGSGSYTYNYEWHVDVWGQGLLVTVSSAS
VL: QAVLNQPSSVSGSLGQRVSITCSGSSSNVGNGYVSWYQLIPGSAPRTLIYGDTSRASGVPDRFSGSRSGNTATLTISSLQAEDEADYFCASAEDSSSNAVFGSGTTLTVLGQPKSPPSVTLFPPSTEELNGNKATLVCLISDFYPGSVTVVWKADGSTITRNVETTRASKQSNSKYAASSYLSLTSSDWKSKGSYSCEVTHEGSTVTKTVKPSECS
notes: IgG, human IgG1 CH1-CH2-CH3; also called VH4-34 + CDR3-IL8 + Cow CDR2
With B3 the “FACS CXCR1/Parental Ratio” value (CXCR1 [3]) was 8.

B4: BLV1H12 IgG (antibody)
VH: QVQLRESGPSLVKPSQTLSLTCTASGFSLSDKAVGWVRQAPGKALEWLGSIDTGGNTGYNPGLKSRLSITKDNSKSQVSLSVSSVTTEDSATYYCTSVHQETKKYQSCPDGYRERSDCSNRPACGTSDCCRVSVFGNCLTTLPVSYSYTYNYEWHVDVWGQGLLVTVSS
light: not shown
notes: also called ULcowV
B4 was tested, and the “Ratio of CXCR1/Parental” value (CXCR1 [1]) was 1.9, the “median fluorescence on CXCR1-U2OS” value (CXCR1 [2]) was 9 AFU and the “FACS CXCR1/Parental Ratio” value (CXCR1 [3]) was 1.9.

B5: IgG with VH4-34+CDR3-IL8_CDR1 Cow_CDR2 Cow and light chain V1-51 (antibody)
heavy: not shown
light: QSVLTQPPSVSAAPGQKVTISCSGSSSNIGNNYVSWYQQLPGTAPKLLIYDNNKRPSGIPDRFSGSKSGTSATLGITGLQTGDEADYYCASAEDSSSNAVFGSGTTLTVLGQPKAAPSVTLFPPSSEELQANKATLVCLISDFYPGAVTVAWKADSSPVKAGVETTTPSKQSNNKYAASSYLSLTPEQWKSHRSYSCQVTHEGSTVEKTVAPTECS
notes: IgG, human IgG1 CH1-CH2-CH3; supernatant; also called Cow / Cow / V1-51; VH4-34 CDR3-IL8 CDR1-Cow & CDR2-Cow with V1-51
For B5, the “CXCR1/Parental Ratio” value (CXCR1 [4]) was 3.1 and the CXCR1 specificity (CXCR1 [5]) was 11.1.
